For test [1], the target named is long Homer proteins (Homer1b/c, Homer2, and Homer3, collectively referred to as Homer) (mouse (endogenous in hippocampal neurons)).
For test [2] the target is unchanged. The source holds these as a separate data set.
For test [3] the target is unchanged. The source holds these as a separate data set.

On to “Metabotropic glutamate receptor subtype 5 (mGluR5) (from UniProt Q3UVX5 19-1203)”, for which the change of the mobile fraction of synaptic mGluR5 in WT neurons, TAT-mGluR5ct against TAT-mGluR5mu in test [1] was 12.6%. Besides, in test [2], the co-localized mGluR5/GluN1/Homer1-positive signals as percentage of synaptic GluN1 signal, WT neurons treated with TAT-mGluR5ct (5 µM, 1 h); increased worked out at 71.8% and the co-localized mGluR5/GluN1/Homer1-positive signals as percentage of synaptic GluN1 signal, WT neurons treated with the control peptide TAT-mGluR5mu (5 µM, 1 h); no effect came to 61.2%. In test [3], this substance had an EPSCs (NMDA) amplitude (% of baseline) after DHPG (mGluR-LTD) in WT slices treated with TAT-mGluR5ct; LTD abolished of 101%; an EPSCs (NMDA) amplitude (% of baseline) after DHPG (mGluR-LTD) in WT slices treated with the control peptide TAT-mGluR5mu; LTD not abolished of 56.6%; an EPSCs (NMDA) amplitude in CA1 pyramidal neurons of WT slices treated with TAT-mGluR5ct (5 µM, 4 h); lower than untreated WT of 88.1 pA; an EPSCs (NMDA) amplitude in CA1 pyramidal neurons of WT slices treated with the control peptide TAT-mGluR5mu (5 µM, 4 h); not lower than untreated WT of 126 pA. The NMDA/AMPA ratio in CA1 pyramidal neurons of WT slices treated with TAT-mGluR5ct; reduced in test [3] worked out at 0.88.

Values taken from paper PMC5653653.
